In US20210292393A1 (published 2021):

B1: anti-SARS-CoV-2 antibody 923 (antibody, V domains shown)
VH: EVQLVESGGGVVRPGGSLRLSCAASGFIFDDYDMTWVRQAPGKGLEWVSGISWNGGNTGYADSVKGRFTISRDNAKNSLYLQMNSLRAEDTALYHCAVIMSPIPRYSGYDWAGGAFDIWGQGTMVTVSS
VL: SSELTQDPAVSVALGQTVRITCQGDSLRSYYASWYQQKPGQVPILVIYDKNNRPSGIPDRFSGSSSGNTASLTITGAQAEDEADYYCNSRDSSGNAVVFGGGTKLTVL
B2: antibody 545 (antibody, V domains shown)
VH: QVQLVQSGSELKKPGASVKVSCKASGYTFTSYAMNWVRQAPGQGLEWMGWINTNTGNPTYAQGFTGRFVFSLDTSVSTAYLQISVLKAEDTGVYYCARDHELPNSSSWFGHFEYWGQGTLVTVSS
VL: SYELTQPPSVSVSPGQTARITCSGDALPKQYAYWYQQKAGQAPVLVIYKDSERRSGIPERFSGSSSGTTVTLTISGVQAEDEADYYCQSADSSGTSVVFGGGTKLTVL
B3: anti-SARS-CoV-2 antibody 989 (antibody, V domains shown)
VH: QVQLQESGPGLVKPSQTLSLTCTVSGGSISSGSYYWSWIRQPAGKGLEWIGRIYTSGSTNYNPSLKSRVTMSVDTSKNHFSLKLRSVTAADTAVYYCARGIAVAGDDDYYYYYGLDVWGQGTTVTVSS
VL: SYELTQPPSVSVSPGQTARITCSGDALPKQYAYWYQQKPGQAPVMVINKDSERPSGIPERFSGSSSGTTVTLTISGVQAEDEADYYCHSADSSGTYWVFGGGTKLTVL
B4: antibody 546 (antibody, V domains shown)
VH: QVQLVESGGGVVQPGRSLRLSCAASGFTFSSYGMHWVRQAPGKGLEWVAVIWYDGSNKYYADSVKGRFTISRDNSKNTLYLQMNSLRAEDTAVYYCARNCGGDCVAGDGFDYWGQGTLVTVSS
VL: DIQMTQSPSSLSASVGDRVTITCRASQSISSYLNWYQQKPGKAPNLLIYAASSLQSGVPSRFSGSGSGTDFTLTISSLQPEDFATYYCQQSYSALTWTFGQGTKVEIK
B5: anti-SARS-CoV-2 antibody 1012 (antibody, V domains shown)
VH: EVQVVESGGGLVQPGGSRRLSCTASGFTLRNYWMSWVRQAPGKGLEWVANIKQDGSEKYYVDSVKGRFTISRDNAKNSLYLQMDSLRAEDTAVYYCARGGRYCPGGSCPRWGRGTLVTVSS
VL: DIQMTQSPSSLSASVGDRVTITCQASQDISNFLNWYQLKPGEAPTLLIFDASKLETGVPSRFSGTGFGTDFTFTISSLQPEDTATYYCQQYDDLTSITLGQGTRLEIK
B6: antibody 548 (antibody, V domains shown)
VH: QVQLVESGGGVVQPGRSLRLSCAASGFTFSSYAMHWVRQAPGKGLEWVAVISYDGSNKYYADSVKGRFTISRDNSKNTLYLQMNNLRAEDTAVYYCAKSGSGSYLSAFDIWGQGTMVTVSS
VL: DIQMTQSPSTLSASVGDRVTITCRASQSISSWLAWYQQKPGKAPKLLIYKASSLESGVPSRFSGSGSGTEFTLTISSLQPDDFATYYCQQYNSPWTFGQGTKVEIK
B7: anti-SARS-CoV-2 antibody 933 (antibody, V domains shown)
VH: QVQLVQSGAEVKKPGASVKVSCKASGYTFTTYDINWVRQATGQGLEWMGWMNPNSGYTDSAQKFQGRVTMTRNTSISTAYMELSSLRSEDTAVYYCASGRGVKTYYFDYWGQGTLVTVSS
VL: SYELTQPPSVSVSPGQTASITCSGDKLGDKSACWYQQKPGQSPVLVICQDTKRPSGIPERFSGSNSGNTATLTISGTQAMDEADYYCQAWDSRTVVFGGGTKLTVL
B8: antibody 543 (antibody, V domains shown)
VH: EVQLVESGGGLVQPGRSLRLSCAASGFTFHDYAMHWVRQAPGKGLEWVSGISWNSGSIGYADSVKGRFTISRDNAKNSLYLQMNSLRAEDTALYYCAKDTFGSSSWYRGDSYYYYGMDVWGQGTTVTVSS
VL: QSALTQPASVSGSPGQSITISCTGTSSDVGGYNYVSWYQQHPGKAPKLMIYEVSNRPSGVSNRFSGSKSGNTASLTISGLQAEDEADYYCSSYTSSSTQRYVVFGGGTKLTVL
B9: antibody 537 (antibody, V domains shown)
VH: QVQLQQWGAGLLKPSETLSLTCAVYGGSFSGYYWSWIRQPPGKGLEWIGEINHSGSTNYNPSLKSRVTISVDTSKNQFSLKLSSVTAADTAVYYCARGLYYDMGGGFDYWGQGTLVTVSS
VL: not shown
B10: anti-SARS-CoV-2 antibody 1037 (antibody, V domains shown)
VH: QITLKESGPTLVKPTQTLTLTCTFSGFSLSTSGVGVGWIRQPPGKALEWLALIYWDDDKRYSPSLKSRLTITKDTSKNQVVLTMTNMDPVDTATYYCAHHTITRINDYWGQGTLVTVSS
VL: QSALTQPASVSGSPGQSITISCTATSSDVGAYNYVSWYQQHPGKAPKLMIYDVSKRPSGVSNRFSGSKSGNTASLTISGLQAEDEADYYCSSYTSSSTVFGGGTKLTVL
B11: antibody 560 (antibody, V domains shown)
VH: EVQLVESGGGLVQPGGSLRLSCAASGFTISSNYMSWVRQAPGKGLEWVSVIYSGGSTYYADSVKGRFTISRDNSKNTLYLQMNSLRAEDTAVYYCAREEGEWEKDYYGMDVWGQGTTVTVSS
VL: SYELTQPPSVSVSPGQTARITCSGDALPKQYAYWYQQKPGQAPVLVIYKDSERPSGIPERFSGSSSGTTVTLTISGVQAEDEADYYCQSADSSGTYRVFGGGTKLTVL
B12: anti-SARS-CoV-2 antibody 966 (antibody, V domains shown)
VH: QVQLVESGGGVVQPGRSLRLSCAASEFTFSSYGMHWVRQAPGKGLEWVAVISHDGSNEYYADSVKGRFTISRDNSKNTLYLQMNSLRAEDTAVYYCAKWRGPHRGYYDRSGYYLGSSRDDYWGQGTLVTVSS
VL: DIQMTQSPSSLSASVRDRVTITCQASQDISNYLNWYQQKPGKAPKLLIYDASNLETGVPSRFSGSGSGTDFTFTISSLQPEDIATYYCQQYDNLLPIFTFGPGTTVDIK
B13: antibody 541 (antibody, V domains shown)
VH: QVQLVQSGAEVKKPGASVKVSCKASGYTFTSYYVHWVRQAPGQSLEWMGVISPSTGSTTYAQNFQGRVTMTRDTSTTTVYMELSSLRSEDTAVYYCARDDYYDSTRYFDLWGRGTLVTVSS
VL: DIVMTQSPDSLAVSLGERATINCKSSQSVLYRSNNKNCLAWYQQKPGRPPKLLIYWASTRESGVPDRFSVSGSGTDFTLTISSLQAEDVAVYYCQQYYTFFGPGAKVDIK
B14: antibody 533 (antibody, V domains shown)
VH: GVQLVESGGVVVQPGGSLRLSCAASGFSFDDYTMHWVRQAPGKGLEWVSLVSWDGGTTYYTDSVKGRFTISRDNSKNSLYLQMNSLRTEDTALYFCAKDSGRIVPAATFDYWGQGTLVTVSS
VL: DIQMTQSSSSLSASVGDRVTITCRASQDISNYLAWFQQKPGKAPKSLIYAASSLQSGVPSKFSGSGSGTDFTLTISSLQPEDFATYYCQQYYTYPLTFGGGTKVEIK
B15: anti-SARS-CoV-2 antibody 1000 (antibody, V domains shown)
VH: EVQLVESGGGLVQPGRSLRLSCAASGFTFDDYAMHWVRQAPGEGLEWVSGISWNSGSIGYADSVKGRFTISRDNAKNSLYLQMNSLRAEDTALYYCAKDTRFSFGTIAAAVSGYGMDVWGQGTTVTVSS
VL: QSALTQPASVSGSPGQSITISCTGTSSDVGIFNLVSWYQQHPGKAPKLMIYEVTKRPSGVSNRFSGSKSGNTASLTISGLQAEDEADYYCCSYAGSYVFGTGTKVTVL
B16: antibody 536 (antibody, V domains shown)
VH: QVQLVESGGGVVQPGRSLRLSCAASGFTFSSYVMHWVRQAPGKGLEWVALISYDGSNKYYADSVKGRFTISRDNSKNTLYLQMNSLRAEDTAVYYCARGGHIRVGRYFDWLISYFDYWGQGTLVTVSS
VL: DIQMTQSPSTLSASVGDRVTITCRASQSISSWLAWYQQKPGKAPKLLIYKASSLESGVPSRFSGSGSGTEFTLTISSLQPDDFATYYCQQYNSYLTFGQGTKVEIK
B17: antibody 547 (antibody, V domains shown)
VH: QVHLVESGGGVVQPGRSLRLSCAASGFALSSYAMHWVRQPPGKGLEWVALISYDGSVKKYADSVKGRITVSGDNSRNTLHLQINSLRADDTAVYYCVRGGVSGPNSFDLWGHGTMVTVSS
VL: DVVLTQSPLSLPVTLGQPASISCRSSQSLEYSVGNTYVNWFQQRPGQSPRRLIYKVSNRDSGVPDRFSGSGSGTDFTLQISRVEADDVGIYYCMQGTHWPVTFGQGTKVEIK
B18: antibody 527 (antibody, V domains shown)
VH: QLQLQESGPGLVKPSETLSLTCTVSGGSISSSSYYWGWIRQPPGKGLEWIGSIYYSGSTYYNPSLKSRVTISVDTSKNQFSLKLSSVTAADTAMYYCASHVVVIASSYWCFDLWGRGTLVTVSS
VL: QSALTQPASVSGSPGQSITISCTGTSSDVGGYNYVSWYQQHPGKAPKLMIYDVSNRPSGVSNRFSGSKSGNTASLTISGLQAEDEADYYCSSYTSISTWVFGGGTKLTVL
B19: antibody 556 (antibody, V domains shown)
VH: QVQLVESGGGVVQPGRSLRLSCAASGFTFSSYAMHWVRQAPGKGLEWVAVISYDGSDKYYADSVKGRVTISRDNSKNTLYLQMNSLRVEDTAVFYCAKDDCSGGVCFPDYWGQGTLVTVSS
VL: QSALTQPASVSGSPGQSITISCTGTSSDVGGYNYVSWYQQHPGKAPKLMIYEVSIRPSGVSNRFSGSKSGNTASLTISGLQAEDEAAYYCSSYTSSSTLVFGGGTKLTVL
B20: anti-SARS-CoV-2 antibody 1009 (antibody, V domains shown)
VH: QLQLQESGPGLVKPSQTLSLTCTVSGGSISSGSYYWSWIRQPAGKGLEWIGSIYTSGSTYYNPSLKSRVTISVDTSKNQFSLKLSSVTAADTAVYYCARKNWLQGSFDYWGQGTLVIVSS
VL: NFMLTQPHSVSESPGKTVTISCTRSSGSIANNYVQWYQQRPGSAPTTVIYEDNQRPSGVPDRFSGSIDSSSNSASLTISGLKTEDEADYYCQSYDTSNHGVFGGGTKLTVL
B21: anti-SARS-CoV-2 antibody 1075 (antibody, V domains shown)
VH: QVQLVQSGAEVKKPGASVKVSCKVSGYTLIELSMHWVRQAPGKGLEWMGGFDPEDGETIYAQKFQGRVTMTEDTSTDTAYMELSSLRSEDTAVYYCATEWAYYGSGSYLGYWGQGTLVTVSS
VL: EIVMTQSPATLSVSPGERATLSCRASQSVSSNLAWFQQKPGQAPRLLIYGASTRVTVIPARFSGSGSGTEFTLTISSLQSEDFAVYYCQQYNNWPRTFGQGTKVEIK
B22: anti-SARS-CoV-2 antibody 1027 (antibody, V domains shown)
VH: EVQLVESGGGLVQPGGSLRLSCAASGFTVSSNYMSWVRQAPGKGLEWVSIIYSGGSTFYADSVKGRFTISRDSSKNTLYLQMSSLRAEDTAVYYCARDLDYYGMDVWGQGTTVTVSS
VL: DIQLTQSPSFLSAPVGDRVTITCRASQGISSYLAWYQQKPGKAPKLLIYGASTLQSGVPSRFSGSGSGTEFTLTISSLQPEDFATYYCQQLNSYQRFTFGPGTKVEIK
B23: anti-SARS-CoV-2 antibody 1015 (antibody, V domains shown)
VH: EVQLVESGGGLVQPGGSLRLSCAASGFTFSSYWMHWVRQAPGKGLVWVSHINSDGSSTSYADSVKGRFTISRDNAKNTLYLQMNSLRAEDTAVYYCARGLRYFDLDVWGQGTTVTVSS
VL: QSVLTQPPSVSEAPRQRVTISCSGSSSNIGNNAVNWYQQLPGKAPKLLIFYDDLLPSGVSDRFSGSKSGTSASLAISGLQSEDEADYYCAAWDDSLNGGVFGGGTKLTVL

Experiments:
[1] = target: SARS-CoV-2 spike protein with D614G mutation (SARS-CoV-2, UniProt P0DTC2 14-1208)
[2] = target: SARS-CoV-2 full length spike protein, V483A mutant (SARS-CoV-2, UniProt P0DTC2 14-1273)

Row | Binder | Kd [1] [nM] | median fold over isotype [2] [fold over isotype]
1 | B1 | 0.022 | 
2 | B2 |  | 14.3
3 | B3 | 0.039 | 
4 | B4 |  | 18.9
5 | B5 | 0.027 | 
6 | B6 |  | 10.1
7 | B7 | 29 | 
8 | B8 |  | 8.92
9 | B9 |  | 3.74
10 | B10 | 0.023 | 
11 | B11 |  | 14.8
12 | B12 | 1.3 | 
13 | B13 |  | 1.6
14 | B14 |  | 4.86
15 | B15 | 0.016 | 
16 | B16 |  | 2.59
17 | B17 |  | 11.4
18 | B18 |  | 7.97
19 | B19 |  | 7.35
20 | B20 | 0.034 | 
21 | B21 | 0.023 | 
22 | B22 | 0.043 | 
23 | B23 | 0.02 | 
